Experimental data taken from US20250188479A1.

Substrate: CC(C)=CCC/C(C)=C/COP(=O)(O)OP(=O)(O)O
Experiment: purified protein, by the assay type
Settings: other: purified wildtype RhNUDX1, this study; pH 8.0

B1: Rosa hybrida (Rosa hybrid cultivar) RhNUDX1, GPP phosphohydrolase, wildtype, UniProt JQ820249, SEQ ID NO: 14 (Rosa hybrid cultivar) (protein)
chain: MGNETVVVAETAGSIKVAVVVCLLRGQNVLLGRRRSSLGDSTFSLPSGHLEFGESFEECAARELKEETDLDIGKIELLTVTNNLFLDEAKPSQYVAVFMRAVLADPRQEPQNIEPEFCDGWGWYEWDNLPKPLFWPLDNVVQDGFNPFPT
  Km: 46.4 ± 4.4 µM
  kcat: 0.36 s⁻¹
  kcat/Km: 7747 ± 1736 M⁻¹ s⁻¹
